{"source": "paper PMC7676268", "target": "SARS-CoV-2 glycoprotein S (SARS-CoV-2) (UniProt P0DTC2)", "experiment": "cryo-EM structure; in situ cryo-electron tomography on cryo-FIB milled lamellae of chemically fixed infected cells; subtomogram average of 219 S trimers from six tomograms of intracellular virions; C3 symmetry applied after it was revealed without being imposed", "data": [{"substance": "SARS-CoV-2 glycoprotein S (from UniProt P0DTC2 14-1273) (natural protein)", "values": [{"measurement": "stoichiometry N", "value": 3}]}]}
